Assay results: patent publication US20220306695A1, “COMPSTATIN ANALOGUES AND THEIR MEDICAL USES” (priority 2019, published 2022)
Where two headings read alike, the source gives them in different places. Positions of bridges follow the written chain, without caps; N, C: chain ends. Non-standard residues stand in square brackets, D forms with d. β3hI = CC[C@H](C)[C@H](N)CC(=O)O; Nle = CCCC[C@H](N)C(=O)O; Nva = CCC[C@H](N)C(=O)O; Sar = CNCC(=O)O

Legend:
[1] = test system: classical complement pathway; assay: In vitro haemolysis assay (inhibition of classical complement pathway); assay type: cell-based, human; conditions: Table 3; human serum, sensitized sheep red blood cells; read-out: IC50[nM], in vitro analysis of inhibition of hemolysis
In short: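 Serially diluted compound (9 points) was preincubated 15 min at room temperature with diluted human serum, titrated per batch to give 70-90% maximal haemolysis, in Tris/casein buffer pH 7.4 with Mg2+/Ca2+. Antibody-sensitized sheep erythrocytes were then added for 30 min at 37° C, and the reaction was stopped with EDTA. Haemolysis was read at A405, with IC50 from 4PL fit.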

[2] = test system: alternative complement pathway; assay: Ex vivo alternative pathway complement activity (WIESLAB kit) in serum of dosed non-human primates; parameters: species or system Cynomolgus monkeys (Macaca fascicularis); conditions: NHP, subcutaneous 1840 nmol/kg, FIG. 1
Protocol: FIG. 1(a-g): Normalized “ex vivo” activity of the alternative complement pathway over time after administration of a test compound at time 0 to non-human primates. Compounds were given subcutaneously at a dose of 1840 nmol/kg. Complement activity (alternative pathway) was measured using the Wieslab kit. Activity was normalized using the predose (0) sample (set to 100%) and the negative control included in the kit. Normalized activity or average normalized activity for animals and standard deviation is shown.
Healthy male Cynomolgus monkeys (Macaca fascicularis) received single subcutaneous administrations of each test substance. Compounds were formulated in 20 mM phosphate adjusted with NaOH to pH 7.5 and mannitol for isotonicity and dosed at 1840 nmol/kg. Blood was collected from a femoral vein from each animal at the following times: Pre-dose, 1, 2, 4, 8, 24, 48, 72, 96 and 120 h (10 sampling times). Blood was collected into serum separation tubes and allowed to clot at room temperature. The tubes were centrifuged and resulting serum was aliquoted and snap-frozen over dry-ice and stored at nominally −80° C. until analysis. All NHP studies were performed in accordance with animal welfare laws and regulations, including approval of the study by a local ethical review process.
Serum isolated from non-human primates at specific time points after dosing were analyzed for alternative pathway complement activity using the Complement system Alternative Pathway WIESLAB® kit from Svar Life Science (previously Euro diagnostic AB, Sweden) following the manufacturer's protocol. Briefly, serum samples or controls were diluted in buffer and incubated in microtitre strips coated with specific activators of the alternative pathway. The wells were washed and formed C5b-9 was detected using included colorimetric reagents.
Absorbance at 405 nm was measured. The percent activity of the alternative complement pathway was calculated for each animal and timepoint relative to the pre-dose activity (0 hours) of the individual animal with subtraction of the negative control. […]

in vivo = assay: in vivo; parameters: species or system Cynomolgus monkeys (Macaca fascicularis); conditions: male, cynomolgus monkey, sc, 1840 nmol/kg, t½
In short: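 Healthy male cynomolgus monkeys dosed once subcutaneously at 1840 nmol/kg in 20 mM phosphate pH 7.5 with mannitol. Serum sampled pre-dose to 120 h and total drug measured by SPE and LC-MS/MS. Terminal half-life calculated non-compartmentally as ln(2)/λz from the terminal log-linear phase.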

Human C3 [3] = target: T1, Human C3 (human, UniProt P01024 23-1663); assay: cell-based or functional assay
T1 sequence (P01024 23-1663 limits assumed): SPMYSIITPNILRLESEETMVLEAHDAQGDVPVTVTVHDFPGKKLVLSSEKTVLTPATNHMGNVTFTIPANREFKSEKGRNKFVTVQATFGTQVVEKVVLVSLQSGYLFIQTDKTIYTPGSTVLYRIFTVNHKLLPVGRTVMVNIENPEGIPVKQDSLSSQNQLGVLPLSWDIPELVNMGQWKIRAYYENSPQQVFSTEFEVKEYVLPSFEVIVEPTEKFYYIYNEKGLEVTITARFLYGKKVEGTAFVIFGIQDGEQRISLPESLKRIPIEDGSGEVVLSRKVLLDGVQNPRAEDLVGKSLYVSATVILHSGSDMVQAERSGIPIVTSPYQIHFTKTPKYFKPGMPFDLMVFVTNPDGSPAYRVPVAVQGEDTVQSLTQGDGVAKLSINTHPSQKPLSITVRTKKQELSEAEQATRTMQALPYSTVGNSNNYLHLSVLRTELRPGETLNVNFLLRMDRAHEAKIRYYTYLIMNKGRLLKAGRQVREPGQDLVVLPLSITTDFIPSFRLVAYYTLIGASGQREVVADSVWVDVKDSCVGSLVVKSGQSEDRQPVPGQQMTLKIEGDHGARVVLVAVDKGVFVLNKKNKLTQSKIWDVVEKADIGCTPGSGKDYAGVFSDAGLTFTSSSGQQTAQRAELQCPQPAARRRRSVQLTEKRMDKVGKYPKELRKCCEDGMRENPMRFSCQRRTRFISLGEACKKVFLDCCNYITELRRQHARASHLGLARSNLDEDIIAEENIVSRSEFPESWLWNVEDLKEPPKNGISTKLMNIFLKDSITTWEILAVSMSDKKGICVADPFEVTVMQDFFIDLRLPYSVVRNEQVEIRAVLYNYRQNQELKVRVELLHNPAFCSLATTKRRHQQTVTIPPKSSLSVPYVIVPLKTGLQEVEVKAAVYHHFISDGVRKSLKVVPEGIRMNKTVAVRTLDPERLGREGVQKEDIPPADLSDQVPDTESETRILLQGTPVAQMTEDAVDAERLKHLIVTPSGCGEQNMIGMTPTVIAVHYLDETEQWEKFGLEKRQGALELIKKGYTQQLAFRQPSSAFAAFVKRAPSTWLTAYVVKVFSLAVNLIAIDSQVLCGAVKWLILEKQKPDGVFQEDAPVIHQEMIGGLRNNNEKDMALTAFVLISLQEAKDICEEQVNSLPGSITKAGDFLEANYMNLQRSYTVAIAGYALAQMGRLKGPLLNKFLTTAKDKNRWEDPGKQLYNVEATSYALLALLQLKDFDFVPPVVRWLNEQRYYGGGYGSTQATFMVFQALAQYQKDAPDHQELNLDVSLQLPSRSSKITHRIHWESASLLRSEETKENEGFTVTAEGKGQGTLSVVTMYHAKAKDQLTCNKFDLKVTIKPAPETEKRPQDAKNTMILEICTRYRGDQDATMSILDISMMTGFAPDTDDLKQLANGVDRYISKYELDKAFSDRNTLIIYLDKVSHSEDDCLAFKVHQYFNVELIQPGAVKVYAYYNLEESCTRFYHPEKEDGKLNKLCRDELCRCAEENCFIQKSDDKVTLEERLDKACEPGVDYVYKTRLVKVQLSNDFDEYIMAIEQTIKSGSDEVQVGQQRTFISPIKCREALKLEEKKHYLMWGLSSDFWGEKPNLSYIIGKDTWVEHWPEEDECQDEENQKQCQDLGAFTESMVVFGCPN

Human C3 [4] = target: T1, Human C3; assay: SPR, C3 immobilised
Protocol: Surface plasmon resonance (SPR) was used to characterize peptides with respect to their binding affinity (Kd) for C3. Human C3 (Complement tech cat #A1 13c) was immobilised on individual flow cells of CM5 sensor chips (GE Healthcare) using standard amine coupling to a density of approximately 3000 resonance units (RU) in a buffer consisting of 10 mM phosphate pH 7.4, 150 mM NaCl, 0.05% Tween20.
For interaction experiments a multi-cycle experiment approach was used and performed using either a Biacore™ T200 or Biacore™ X100 instrument (GE Healthcare) at 25° C. Peptides were injected in increasing concentration series (5-8 different concentrations) for 60-120 s at a flow rate of 30 μL/min in a buffer consisting of 10 mM Tris buffer at pH 7.4, with 150 mM NaCl and 0.05% Tween20. This was followed by a dissociation period for up to 10 min. The C3 surface was regenerated between runs by a 45 s injection of 3 M MgCl₂.
Sensorgrams were double-referenced (reference surface, blanks) prior to analysis of the kinetic profiles by globally fitting data to a 1:1 Langmuir binding model to obtain association and dissociation rates for calculation of the equilibrium dissociation constant Kd. Each peptide was tested at in at least 2 independent experiments.

Human C3 [5] = target: T1, Human C3; assay: cell-based or functional assay; remark: listed apart in the source
Human C3 [6] = target: T1, Human C3; assay: cell-based or functional assay; remark: listed apart in the source
Human C3 [7] = target: T1, Human C3; assay: SPR, C3 immobilised; remark: listed apart in the source
In short: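 Human C3 amine-coupled to a CM5 chip at ~3000 RU; peptides injected multi-cycle at 5-8 concentrations for 60-120 s in Tris pH 7.4, 150 mM NaCl, 0.05% Tween20 at 25° C, dissociation up to 10 min.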

Row | Molecule | Kd (Human C3 [4]) [nM] | CP hemolysis IC50 (Human C3 [3]) [nM] | IC50, CP hemolysis (Human C3 [5]) [nM] | IC50[nM], inhibition of hemolysis (Human C3 [6]) [nM] | also measured
1 | CC[C@H](C)[C@H](NC(=O)[C@H](N)Cc1ccc(O)cc1)C(=O)N[C@H]1CSSC[C@@H](C(=O)N(C)[C@H](C(N)=O)[C@@H](C)CC)NC(=O)[C@H](CCCNC(=N)N)NC(=O)[C@H](Cc2c[nH]cn2)NC(=O)[C@H](C)NC(=O)CN(C)C(=O)[C@H](Cc2c[nH]c3ccccc23)NC(=O)[C@H](CC(=O)O)NC(=O)[C@H](CCC(N)=O)NC(=O)[C@H](Cc2cn(C)c3ccccc23)NC(=O)[C@H](C(C)C)NC1=O [Cp40, H-{d}YIC(1)V[1-Me-Trp]QDW[Sar]AHRC(1)[N-Me-Ile]-NH2, reference compound] |  |  |  |  | IC50 [1]: < 100 nM; Duration of pharmacological activity (alternative complement pathway activity) in vivo [2]: relatively short duration of action; half-life (in vivo): 31.8 h
2 | Ac-IC[β3hI]WQDWGEHRCT-NH2 (disulfide 2-12) [Ac-IC(1)XWQDWGEHRC(1)T-NH2 with Beta-Homo-Isoleucine at position 3] |  |  | > 10000 |  | 
3 | Ac-IC[Nva]WQDWGEHRCT-NH2 (disulfide 2-12; SMILES CCC[C@@H]1NC(=O)[C@@H](NC(=O)[C@@H](NC(C)=O)[C@@H](C)CC)CSSC[C@@H](C(=O)N[C@H](C(N)=O)[C@@H](C)O)NC(=O)[C@H](CCCNC(=N)N)NC(=O)[C@H](Cc2c[nH]cn2)NC(=O)[C@H](CCC(=O)O)NC(=O)CNC(=O)[C@H](Cc2c[nH]c3ccccc23)NC(=O)[C@H](CC(=O)O)NC(=O)[C@H](CCC(N)=O)NC(=O)[C@H](Cc2c[nH]c3ccccc23)NC1=O) [Ac-IC(1)XWQDWGEHRC(1)T-NH2 with Norvaline at position 3] |  |  | > 1000 |  | 
4 | Ac-IC[Nle]WQDWGEHRCT-NH2 (disulfide 2-12; SMILES CCCC[C@@H]1NC(=O)[C@@H](NC(=O)[C@@H](NC(C)=O)[C@@H](C)CC)CSSC[C@@H](C(=O)N[C@H](C(N)=O)[C@@H](C)O)NC(=O)[C@H](CCCNC(=N)N)NC(=O)[C@H](Cc2c[nH]cn2)NC(=O)[C@H](CCC(=O)O)NC(=O)CNC(=O)[C@H](Cc2c[nH]c3ccccc23)NC(=O)[C@H](CC(=O)O)NC(=O)[C@H](CCC(N)=O)NC(=O)[C@H](Cc2c[nH]c3ccccc23)NC1=O) [Ac-IC(1)XWQDWGEHRC(1)T-NH2 with Norleucine at position 3] |  |  | 480 |  | 
5 | Ac-EGSAICIWQDWGEHRC[Sar]E-NH2 (disulfide 6-16; SMILES CC[C@H](C)[C@H](NC(=O)[C@H](C)NC(=O)[C@H](CO)NC(=O)CNC(=O)[C@H](CCC(=O)O)NC(C)=O)C(=O)N[C@H]1CSSC[C@@H](C(=O)N(C)CC(=O)N[C@@H](CCC(=O)O)C(N)=O)NC(=O)[C@H](CCCNC(=N)N)NC(=O)[C@H](Cc2c[nH]cn2)NC(=O)[C@H](CCC(=O)O)NC(=O)CNC(=O)[C@H](Cc2c[nH]c3ccccc23)NC(=O)[C@H](CC(=O)O)NC(=O)[C@H](CCC(N)=O)NC(=O)[C@H](Cc2c[nH]c3ccccc23)NC(=O)[C@H]([C@@H](C)CC)NC1=O) [Compound 28] |  | 88 |  | < 100 | Kd (Human C3 [7]): 44 nM
6 | Ac-ICIWQDWGEHRCT-NH2 (disulfide 2-12; SMILES CC[C@H](C)[C@H](NC(C)=O)C(=O)N[C@H]1CSSC[C@@H](C(=O)N[C@H](C(N)=O)[C@@H](C)O)NC(=O)[C@H](CCCNC(=N)N)NC(=O)[C@H](Cc2c[nH]cn2)NC(=O)[C@H](CCC(=O)O)NC(=O)CNC(=O)[C@H](Cc2c[nH]c3ccccc23)NC(=O)[C@H](CC(=O)O)NC(=O)[C@H](CCC(N)=O)NC(=O)[C@H](Cc2c[nH]c3ccccc23)NC(=O)[C@H]([C@@H](C)CC)NC1=O) [Compound 2] |  | 94 | < 100 | < 100 | 
7 | Ac-ICIWQDWGEHSCT-NH2 (disulfide 2-12; SMILES CC[C@H](C)[C@H](NC(C)=O)C(=O)N[C@H]1CSSC[C@@H](C(=O)N[C@H](C(N)=O)[C@@H](C)O)NC(=O)[C@H](CO)NC(=O)[C@H](Cc2c[nH]cn2)NC(=O)[C@H](CCC(=O)O)NC(=O)CNC(=O)[C@H](Cc2c[nH]c3ccccc23)NC(=O)[C@H](CC(=O)O)NC(=O)[C@H](CCC(N)=O)NC(=O)[C@H](Cc2c[nH]c3ccccc23)NC(=O)[C@H]([C@@H](C)CC)NC1=O) [Compound 20] |  | 59 |  | < 100 | Kd (Human C3 [7]): 37 nM

The next lines start with results.

Row | Kd (Human C3 [4]) [nM] | Molecule | CP hemolysis IC50 (Human C3 [3]) [nM] | IC50, CP hemolysis (Human C3 [5]) [nM] | IC50[nM], inhibition of hemolysis (Human C3 [6]) [nM] | also measured
8 | 230 | Ac-ICVWQDWGEHRCTGAES-NH2 (disulfide 2-12; SMILES CC[C@H](C)[C@H](NC(C)=O)C(=O)N[C@H]1CSSC[C@@H](C(=O)N[C@H](C(=O)NCC(=O)N[C@@H](C)C(=O)N[C@@H](CCC(=O)O)C(=O)N[C@@H](CO)C(N)=O)[C@@H](C)O)NC(=O)[C@H](CCCNC(=N)N)NC(=O)[C@H](Cc2c[nH]cn2)NC(=O)[C@H](CCC(=O)O)NC(=O)CNC(=O)[C@H](Cc2c[nH]c3ccccc23)NC(=O)[C@H](CC(=O)O)NC(=O)[C@H](CCC(N)=O)NC(=O)[C@H](Cc2c[nH]c3ccccc23)NC(=O)[C@H](C(C)C)NC1=O) [Compound D] | 210 |  |  | 
9 | 130 | Ac-ICVWQDWGEHRCT-NH2 (disulfide 2-12; SMILES CC[C@H](C)[C@H](NC(C)=O)C(=O)N[C@H]1CSSC[C@@H](C(=O)N[C@H](C(N)=O)[C@@H](C)O)NC(=O)[C@H](CCCNC(=N)N)NC(=O)[C@H](Cc2c[nH]cn2)NC(=O)[C@H](CCC(=O)O)NC(=O)CNC(=O)[C@H](Cc2c[nH]c3ccccc23)NC(=O)[C@H](CC(=O)O)NC(=O)[C@H](CCC(N)=O)NC(=O)[C@H](Cc2c[nH]c3ccccc23)NC(=O)[C@H](C(C)C)NC1=O) [Compound A] | 350 | 350 |  | 
10 | 160 | Ac-ICVWQDWGEHRCS-NH2 (disulfide 2-12; SMILES CC[C@H](C)[C@H](NC(C)=O)C(=O)N[C@H]1CSSC[C@@H](C(=O)N[C@@H](CO)C(N)=O)NC(=O)[C@H](CCCNC(=N)N)NC(=O)[C@H](Cc2c[nH]cn2)NC(=O)[C@H](CCC(=O)O)NC(=O)CNC(=O)[C@H](Cc2c[nH]c3ccccc23)NC(=O)[C@H](CC(=O)O)NC(=O)[C@H](CCC(N)=O)NC(=O)[C@H](Cc2c[nH]c3ccccc23)NC(=O)[C@H](C(C)C)NC1=O) [Compound G] | 180 |  |  | 
